According to CN111110862A (dated 2020):
Where two headings read alike, the source gives them in different places. One block for each binder: values may come before it.

Columns and labels:
[1] = biological target: T1, 人CLDN18.1(hCLDN18.1) (human, UniProt P56856 1-261); assay: cell ELISA on fixed hCLDN18.1+cell
T1 construct: also called human claudin-18 isoform 1; 密蛋白18.1
T1 sequence: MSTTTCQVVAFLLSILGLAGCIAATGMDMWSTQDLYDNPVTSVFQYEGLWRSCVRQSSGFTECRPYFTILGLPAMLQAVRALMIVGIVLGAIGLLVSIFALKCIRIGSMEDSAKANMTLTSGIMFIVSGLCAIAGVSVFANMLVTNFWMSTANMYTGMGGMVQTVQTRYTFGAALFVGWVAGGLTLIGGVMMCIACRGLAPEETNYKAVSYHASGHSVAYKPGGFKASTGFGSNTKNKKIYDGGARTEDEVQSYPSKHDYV

[2] = biological target: T2, 鼠CLDN18.1(mCLDN18.1) (mouse, UniProt P56857 1-264); assay: cell ELISA on fixed mCLDN18.1+cell
T2 construct: also called mouse claudin-18 isoform A1.1; mCLDN18.1+cell
T2 sequence: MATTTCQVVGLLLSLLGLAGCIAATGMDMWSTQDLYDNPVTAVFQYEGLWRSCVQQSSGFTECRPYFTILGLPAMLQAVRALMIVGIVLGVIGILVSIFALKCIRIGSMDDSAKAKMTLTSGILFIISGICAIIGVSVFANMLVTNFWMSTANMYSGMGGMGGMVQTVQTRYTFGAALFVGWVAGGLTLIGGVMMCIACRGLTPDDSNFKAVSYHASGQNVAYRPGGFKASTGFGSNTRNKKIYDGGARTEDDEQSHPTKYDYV

[3] = biological target: T3, 鼠CLDN18.2(mCLDN18.2) (mouse, UniProt P56857 10-264); assay: cell ELISA on fixed mCLDN18.2+cell
T3 construct: also called mouse claudin-18 isoform A2.1; mCLDN18.2+cell
T3 chain: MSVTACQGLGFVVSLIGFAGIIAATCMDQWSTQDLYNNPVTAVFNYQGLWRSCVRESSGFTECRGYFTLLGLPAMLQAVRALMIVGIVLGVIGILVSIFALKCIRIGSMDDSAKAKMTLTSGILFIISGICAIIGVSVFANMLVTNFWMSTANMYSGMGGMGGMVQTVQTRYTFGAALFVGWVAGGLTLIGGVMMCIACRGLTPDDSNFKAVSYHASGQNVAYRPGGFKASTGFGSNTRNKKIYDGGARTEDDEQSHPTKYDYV

[4] = biological target: T4, 人CLDN18.2(hCLDN18.2) (human, UniProt P56856 24-261); assay: cell-based or functional assay
[5] = biological target: T4, 人CLDN18.2(hCLDN18.2); assay: cell-based or functional assay; remark: listed apart in the source

- binding result [1]: no binding (tested: 200nM)
- binding result [2]: no binding (tested: 200nM)
- fold better binding (EC50) than Ref [3]: > 4 fold
- fold higher Emax than Ref [3]: > 1 fold
B1: anti-hCLDN18.2鼠源抗体mab5b (antibody, human IgG1, kappa, V domains shown)
VH: QVQLQQSGAELIGPGTSVKVSCKASGYAFSNYLIEWVKQRPEQGLEWIGLINPGSGGTNYNEKFKGKATLTADKSSSTAYMQLSSLTSDDSAVYFCARVYYGNSFAYWGQGTLVTVSA
VL: DIVMTQSPSSLTVTAGEKVTMSCKSSQSLLNSGNQKNYLTWYQQKPGQPPKLLIYWASTRESGVPDRFTGSGSGTHFTLTISSVQAEDLAVYYCQNDYFYPFTFGSGTKLEKKR

- CDC EC50 (LDH release, human serum, hCLDN18.2+ target cells) [4]: 0.255 µg/mL
- CDC EC50 (LDH release, human serum, hCLDN18.2+ target cells) [5]: 1.3 µg/mL
B2: Ab24抗体 (antibody, human IgG1, kappa, V domains shown)
VH: QVQLVQSGAEVKKPGSSVKVSCKASGYAFSNYLIEWVRQAPGQGLEWMGLINPGSGGTNYNEKFKGKVTITADKSTSTAYMELSSLRSEDTAVYYCARVYYGNTFAYWGQGTLVTVSS
VL: DIVMTQSPDSLAVSLGERATINCKSSQSLLNTGNNKNYLAWYQQKPGQPPKLLIYWASTRESGVPDRFSGSGSGTDFTLTISSLQAEDVAVYYCQNDYFYPFTFGQGTKLEIKR

- CDC EC50 (LDH release, human serum, hCLDN18.2+ target cells) [5]: 2.12 µg/mL
B3: Ab51抗体 (antibody, human IgG1, kappa, V domains shown)
VH: QVQLVQSGAEVKKPGSSVKVSCKASGYAFSNYLIEWVRQAPGQGLEWMGLINPGSGGTNYNEKFKGRVTITADESTSTAYMELSSLRSEDTAVYYCARVYYGNTFAYWGQGTLVTVSS
VL: DIVMTQSPDSLAVSLGERATINCKSSQSLLNTGNNKNYLAWYQQKPGQPPKLLIYWASTRESGVPDRFSGSGSGTDFTLTISSLQAEDVAVYYCQNDYFYPFTFGQGTKLEIKR

- CDC EC50 (LDH release, human serum, hCLDN18.2+ target cells) [5]: 1.75 µg/mL
B4: Ab36抗体 (antibody, human IgG1, kappa, V domains shown)
VH: QVQLVQSGAEVKKPGSSVKVSCKASGYAFSNYLIEWVKQAPGQGLEWIGLINPGSGGTNYNEKFKGKATITADKSTSTAYMELSSLRSEDTAVYYCARVYYGNTFAYWGQGTLVTVSS
VL: DIVMTQSPDSLAVSLGERATISCKSSQSLLNTGNNKNYLAWYQQKPGQPPKLLIYWASTRESGVPDRFSGSGSGTDFTLTISSLQAEDVAVYYCQNDYFYPFTFGQGTKLEIKR
